We go through two molecules from article PMC3020921 (Molecular Biology of the Cell, 2011).

Series [1] concerns the target Flag-tagged Nemo-like kinase (NLK), wild type. Briefly: SEC. A general note: SEC sorts molecules by how far they enter the pores of the column.
The series “SEC” deals with the molecule itself. Briefly: SEC.

For “Flag-tagged Nemo-like kinase (NLK), wild type (enzyme)”, in series [1], the stoichiometry N was found to be 2.

B1: endogenous NLK protein of PC12 cells (enzyme, rat (endogenous in PC12), UniProt D3ZSZ3 1-527, looked up)
chain: MSLCGTRANAKMMAAYNGGTSAAAAGHHHHHHHHLPHLPPPHLHHHHHPQHHLHPGSAAAVHPVQQHTSSAAAAAAAAAAAAAMLNPGQQQPYFPSPAPGQAPGPAAAAPAQVQAAAAATVKAHHHQHSHHPQQQLDIEPDRPIGYGAFGVVWSVTDPRDGKRVALKKMPNVFQNLVSCKRVFRELKMLCFFKHDNVLSALDILQPPHIDYFEEIYVVTELMQSDLHKIIVSPQPLSSDHVKVFLYQILRGLKYLHSAGILHRDIKPGNLLVNSNCVLKICDFGLARVEELDESRHMTQEVVTQYYRAPEILMGSRHYSNAIDIWSVGCIFAELLGRRILFQAQSPIQQLDLITDLLGTPSLEAMRTACEGAKAHILRGPHKQPSLPVLYTLSSQATHEAVHLLCRMLVFDPSKRISAKDALAHPYLDEGRLRYHTCMCKCCFSTSTGRVYTSDFEPVTNPKFDDTFEKNLSSVRQVKEIIHQFILEQQKGNRVPLCINPQSAAFKSFISSTVAQPSEMPPSPLVWE
For the molecule B1, the “stoichiometry N” value in the series “SEC” was 2.

As usually defined, the stoichiometry N is the number of molecules, sites or subunits per partner or assembly.
